# In patent US20130190232A1 (Novo Nordisk, published 2013):
# Numbering of substitutions follows the chain as printed. Numbers in names are those of the source.
# T1: human beta-Klotho (human, UniProt Q86Z14 1-1044)
# T1 sequence (looked up): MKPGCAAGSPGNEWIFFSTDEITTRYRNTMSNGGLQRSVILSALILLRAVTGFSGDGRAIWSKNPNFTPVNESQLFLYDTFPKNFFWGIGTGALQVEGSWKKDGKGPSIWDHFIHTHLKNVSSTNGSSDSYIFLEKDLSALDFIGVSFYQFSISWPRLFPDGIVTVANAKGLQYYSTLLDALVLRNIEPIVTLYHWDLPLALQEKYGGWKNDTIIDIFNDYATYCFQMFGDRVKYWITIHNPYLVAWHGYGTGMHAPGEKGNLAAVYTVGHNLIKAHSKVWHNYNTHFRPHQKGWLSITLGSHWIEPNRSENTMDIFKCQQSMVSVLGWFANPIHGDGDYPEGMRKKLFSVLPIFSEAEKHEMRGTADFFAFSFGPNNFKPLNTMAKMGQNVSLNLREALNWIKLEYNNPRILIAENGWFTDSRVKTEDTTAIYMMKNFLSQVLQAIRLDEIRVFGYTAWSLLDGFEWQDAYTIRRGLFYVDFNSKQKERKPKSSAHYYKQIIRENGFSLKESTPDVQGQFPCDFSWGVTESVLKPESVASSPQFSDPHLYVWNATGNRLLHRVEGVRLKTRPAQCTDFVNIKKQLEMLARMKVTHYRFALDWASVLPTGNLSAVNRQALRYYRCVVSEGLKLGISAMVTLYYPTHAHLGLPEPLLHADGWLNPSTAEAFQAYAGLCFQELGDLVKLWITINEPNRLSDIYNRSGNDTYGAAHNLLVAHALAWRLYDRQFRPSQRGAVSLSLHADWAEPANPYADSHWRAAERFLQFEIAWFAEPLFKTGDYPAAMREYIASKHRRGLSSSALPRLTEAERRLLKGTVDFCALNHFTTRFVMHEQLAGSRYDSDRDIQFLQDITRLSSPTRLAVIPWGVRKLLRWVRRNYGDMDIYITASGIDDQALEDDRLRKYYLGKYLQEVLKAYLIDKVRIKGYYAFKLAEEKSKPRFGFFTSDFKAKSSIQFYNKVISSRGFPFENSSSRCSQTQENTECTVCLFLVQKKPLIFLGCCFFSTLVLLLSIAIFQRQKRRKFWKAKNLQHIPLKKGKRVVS
# B1: Met-FGF21 (Compound A) (ligand)
# chain: MHPIPDSSPLLQFGGQVRQRYLYTDDAQQTEAHLEIREDGTVGGAADQSPESLLQLKALKPGVIQILGVKTSRFLCQRPDGALYGSLHFDPEACSFRELLLEDGYNVYQSEAHGLPLHLPGNKSPHRDPAPRGPARFLPLPGLPPALPEPPGILAPQPPDVGSSDPLSMVGPSQGRSPSYAS
# B2: [K56R, K59R, K69R, K122R]Gly-FGF21 (ligand)
# chain: B1 chain with M1G, K57R, K60R, K70R, K123R
# B3: N-alpha-bis-(4-{[2-(2-{2-[2-(2-{2-[(S)-4-carboxy-4-(17-carboxyheptadecanoylamino)butyrylamino]ethoxy}ethoxy)acetylamino]ethoxy}ethoxy)acetylamino]methyl}benzyl) … (ligand)
# chain: B1 chain with M1G, K57R, K60R, K70R, K123R
# modifications: alpha amino group of the N-terminal Gly carries two 4-{[2-(2-{2-[2-(2-{2-[(S)-4-carboxy-4-(17-carboxyheptadecanoylamino)butyrylamino]ethoxy}ethoxy)acetylamino]ethoxy}ethoxy)acetylamino]methyl}benzyl groups
# B4: [N121Q]Met-FGF21 (ligand)
# chain: B1 chain with N122Q
# B5: [N121Q] Ala-FGF21 (ligand)
# chain: B1 chain with M1A, N122Q
# B6: [N121Q, L166F, S167G, M168L, P171L, S172E, Q173A, G174V, Y179F, A180E, des181]Ala-FGF21 (ligand)
# chain: AHPIPDSSPLLQFGGQVRQRYLYTDDAQQTEAHLEIREDGTVGGAADQSPESLLQLKALKPGVIQILGVKTSRFLCQRPDGALYGSLHFDPEACSFRELLLEDGYNVYQSEAHGLPLHLPGQKSPHRDPAPRGPARFLPLPGLPPALPEPPGILAPQPPDVGSSDPFGLVGLEAVRSPSFE
# B7: N-alpha(4-{[2-(2-{2-[2-(2-{2-[(S)-4-Carboxy-4-(17-carboxyheptadecanoylamino)butyrylamino]-ethoxy}ethoxy)acetylamino]ethoxy}ethoxy)acetylamino]methyl}benzyl) … (ligand)
# chain: B6 chain with S72C
# modifications: alpha amino group of the N-terminal Ala carries one 4-{[2-(2-{2-[2-(2-{2-[(S)-4-carboxy-4-(17-carboxyheptadecanoylamino)butyrylamino]ethoxy}ethoxy)acetylamino]ethoxy}ethoxy)acetylamino]methyl}benzyl group
# B8: [S71C, N121Q, L166F, S167G, M168L, P171L, S172E, Q173A, G174V, Y179F, A180E, des181]Ala-FGF21 (ligand)
# chain: B6 chain with S72C
# B9: [S71C, N121Q, L166F, S167G, M168L, des170, 173aA, G174V, Y179F, A180E, des181]Ala-FGF21 (ligand)
# chain: B6 chain with S72C, G171P, L172S, E173Q
# B10: [S71C, N121Q, L166F, S167G, M168L, 173aA, G174V, Y179F, A180E, des181]Ala-FGF21 (ligand)
# chain: AHPIPDSSPLLQFGGQVRQRYLYTDDAQQTEAHLEIREDGTVGGAADQSPESLLQLKALKPGVIQILGVKTCRFLCQRPDGALYGSLHFDPEACSFRELLLEDGYNVYQSEAHGLPLHLPGQKSPHRDPAPRGPARFLPLPGLPPALPEPPGILAPQPPDVGSSDPFGLVGPSQAVRSPSFE
# Target: T1, human beta-Klotho
# Test: cell-based or functional assay
row,Molecule,pERK-HEK293-Beta-klotho without HSA [EC50 (nM)] Mean Value
1,"[Q28R, K56R, K59R, K69R, D102T, D121Q, K122R, L166F, S167G, M168L, G170T] Ala-FGF21 (from UniProt Q9NSA1 28-209) (ligand)",0.8 nM
2,"N-alpha-(4-{[2-(2-{2-[2-(2-{2-[(S)-4-carboxy-4-(17-carboxyheptadecanoylamino)butyrylamino]ethoxy}ethoxy)acetylamino]ethoxy}ethoxy)acetylamino]methyl}benzyl) [K56R, K59R, K69R, D102T, D121Q, K122R, L166F, S167G, M168L, G170T] Ala-FGF21 (Compound III) (from UniProt Q9NSA1 28-209) (ligand)",1 nM
3,B1,1.6 nM
4,B2,8.3 nM
5,B3,4.6 nM
6,B4,1 nM
7,B5,2.3 nM
8,B6,0.7 nM
9,B7,0.4 nM
10,B8,0.6 nM
11,B9,1.8 nM
12,B10,0.4 nM
